Laboratory results taken from the RNAGym collection of RNA variant scans (doi:10.1021/acssynbio.7b00057).

B1: Pistol ribozyme (parent)
chain: GGGUCGUUGUUCCAUAAUCGCGUGGAUAUGGCACGCAAGUUUCUACCGGGCACCGUAAAUGUCCGACUGGAGCCGUUCGGGCGGCUAUAAACAGACCUCAGGCCCGAAGCGUGGCGGCACCUGCCGCCGGUGGUAAAAAAGAUCGGAAGAGCACACGUCU

Variants of: B1
Assay: aptazyme ON/OFF ratio, guanine; higher = stronger switching; co-transcriptional cleavage with and without guanine

Variant	aptazyme ON/OFF ratio
U7G G9C U10A U11A C12A	1.46
U7G G9C U10A U11A C12U	1.65
U7G G9C U10A U11A C12G	1.7
U7G G9A U10G U11A C13U	1.07
U7G G9A U10G U11A C13A	1.05
U7G G9A U10G U11A C13G	1.06
U7G G9C U10C C12G C13G	1.09
U7G G9C U10C C12G C13A	1.31
U7G G9C U10C C12G C13U	1.23
U7G G9A U10G U11C C12G C13A	1.08
U7G G9A U10G U11C C12G C13G	1.08
U7G G9A U10G U11C C12G C13U	1.1
U7G G9A U10G U11G C12A	1.1
U7G G9A U10G U11G C12U	1.16
U7G G9A U10G U11G C12G	1.09
U7G G9C U10C U11A C12A	1.46
U7G G9C U10C U11A C12G	1.31
U7G G9C U10C U11A C12U	1.4
U7G G9A U11A C12G C13A	1.08
U7G G9A U11A C12G C13U	1.12
U7G G9A U11A C12G C13G	1.13
U7G G9A U11A C12A C13A	1.18
U7G G9A U11A C12A C13G	1.09
U7G G9A U11A C12A C13U	1.15

Variant	aptazyme ON/OFF ratio
U7G G9C U10A U11C C12U	1.46
U7G G9C U10A U11C C12A	1.76
U7G G9C U10A U11C C12G	1.27
U7G G9C U10A U11G C12A C13U	1.14
U7G G9C U10A U11G C12A C13G	1.11
U7G G9C U10A U11G C12A C13A	1.07
U7G G9C U10C U11C C12G	1.14
U7G G9C U10C U11C C12U	1.06
U7G G9C U10C U11C C12A	1.03
U7G G9C U10G U11C	1.17
U7G G9C U10G U11G	2.48
U7G G9C U10G U11A	1.37
U7G G9C U10C U11C C12A C13G	1.09
U7G G9C U10C U11C C12A C13A	1.02
U7G G9C U10C U11C C12A C13U	1.03
U7G G9A U10G U11G C13U	1.14
U7G G9A U10G U11G C13G	1.09
U7G G9A U10G U11G C13A	1.05
U7G G9A U11G C12G C13G	1.07
U7G G9A U11G C12G C13A	1.07
U7G G9A U11G C12G C13U	1.16
U7G G9C U10A C12A C13A	1.2
U7G G9C U10A C12A C13U	1.2
U7G G9C U10A C12A C13G	1.09

Variant	aptazyme ON/OFF ratio
U7G G9C U10A U11G C12G C13A	1.1
U7G G9C U10A U11G C12G C13G	1.08
U7G G9C U10A U11G C12G C13U	1.12
U7G G9A U10C U11C C12G	1.17
U7G G9A U10C U11C C12U	1.07
U7G G9C U10C U11G C12A	1.14
U7G G9C U10C U11G C12G	1.1
U7G G9C U10C U11G C12U	1.57
U7G G9A U10G U11G C12G C13A	1.11
U7G G9A U10G U11G C12G C13U	1.16
U7G G9A U10G U11G C12G C13G	1.16
U7G G9A U10C U11G	1.68
U7G G9C U10A U11C C12U C13A	1.33
U7G G9C U10A U11C C12U C13U	1.18
U7G G9C U10A U11C C12U C13G	1.19
U7G G9C U10A U11G C13G	1.14
U7G G9C U10A U11G C13A	1.13
U7G G9C U10A U11G C13U	1.4
U7G G9A U10G U11C C12A C13U	1.1
U7G G9A U10G U11C C12A C13A	1.09
U7G G9A U10G U11C C12A C13G	1.06
U7G G9A U10C U11G C12A	1.09
U7G G9A U10C U11G C12G	1.15
U7G G9A U10C U11G C12U	1.19

Variant	aptazyme ON/OFF ratio
U7G G9A U11C C12A C13U	1.26
U7G G9A U11C C12A C13G	1.14
U7G G9A U11C C12A C13A	1.1
U7G G9C U10C U11G C12G C13A	1.09
U7G G9C U10C U11G C12G C13G	1.08
U7G G9C U10C U11G C12G C13U	1.08
U7G G9C U10C C12A	1.5
U7G G9C U10C C12G	1.29
U7G G9C U10C C12U	1.7
U7G G9C U10A U11C	1.17
U7G G9C U10A U11A	2.95
U7G G9C U10A U11G	3.08
U7G G9C U10G U11A C12U	1.19
U7G G9C U10G U11A C12A	1.18
U7G G9C U10G U11A C12G	1.28
U7G G9C U10G U11C C13U	1.15
U7G G9C U10G U11C C13A	1.24
U7G G9C U10G U11C C13G	1.16
U7G G9C U10A C13G	1.07
U7G G9C U10A C13U	1.16
U7G G9C U10A C13A	1.2
U7G G9C U10A U11A C12U C13A	1.29
U7G G9C U10A U11A C12U C13G	1.25
U7G G9C U10A U11A C12U C13U	1.29

Variant	aptazyme ON/OFF ratio
U7G G9A U11G C12U	1.3
U7G G9A U11G C12G	1.17
U7G G9A U11G C12A	1.17
U7G G9C U10A U11G C12U C13U	1.26
U7G G9C U10A U11G C12U C13A	1.18
U7G G9C U10A U11G C12U C13G	1.2
U7G G9A U10G U11G C12U C13U	1.1
U7G G9A U10G U11G C12U C13A	1.09
U7G G9A U10G U11G C12U C13G	1.12
U7G G9A U10C U11G C12U C13U	1.14
U7G G9A U10C U11G C12U C13A	1.11
U7G G9A U10C U11G C12U C13G	1.11
U7G G9C U10A U11C C12A C13G	1.23
U7G G9C U10A U11C C12A C13A	1.34
U7G G9C U10A U11C C12A C13U	1.36
U7G G9A U10G U11A C12A	1.09
U7G G9A U10G U11A C12U	1.07
U7G G9A U10G U11A C12G	1.07
U7G G9C U10A C12U	1.18
U7G G9C U10A C12G	1.4
U7G G9C U10A C12A	1.43
U7G G9C U10C C12A C13G	1.16
U7G G9C U10C C12A C13A	1.16
U7G G9C U10C C12A C13U	1.36

Variant	aptazyme ON/OFF ratio
U7G G9C U10G U11G C12A C13A	1.1
U7G G9C U10G U11A C12G C13A	1.14
U7G G9C U10G U11A C12G C13G	1.18
U7G G9C U10G U11A C12G C13U	1.28
U7G G9C U10G U11C C12A C13A	1.19
U7G G9C U10G U11C C12A C13U	1.33
U7G G9C U10G U11C C12A C13G	1.23
U7G G9C U10G	1.89
U7G G9C U10A	3.1
U7G G9C U10C	2.77
U7G G9A U11C C13U	1.14
U7G G9A U11C C13A	1.11
U7G G9A U11C C13G	1.09
U7G G9C U10C U11C C13G	1.04
U7G G9C U10C U11C C13U	1.03
U7G G9C U10C U11C C13A	1.05
U7G G9A U10G U11G C12A C13U	1.1
U7G G9A U10G U11G C12A C13G	1.09
U7G G9A U10G U11G C12A C13A	1.03
U7G G9C U10C U11A	1.65
U7G G9C U10C U11C	1.17
U7G G9C U10C U11G	1.18
U7G G9C C12A C13A	1.42
U7G G9C C12A C13G	1.33

Variant	aptazyme ON/OFF ratio
U7G G9C C12A C13U	1.34
U7G G9A U10G C12G C13A	1.1
U7G G9A U10G C12G C13U	1.07
U7G G9A U10G C12G C13G	1.12
U7G G9A U10G C13U	1.12
U7G G9A U10G C13A	1.11
U7G G9A U10G C13G	1.13
U7G G9C U10C U11A C13U	1.25
U7G G9C U10C U11A C13G	1.22
U7G G9C U10C U11A C13A	1.24
U7G G9C U10C U11C C12G C13G	1.05
U7G G9C U10C U11C C12G C13U	1.06
U7G G9C U10C U11C C12G C13A	1.08
U7G G9A U10G C12U C13A	1.11
U7G G9A U10G C12U C13G	1.11
U7G G9A U10G C12U C13U	1.1
U7G G9C U10G U11A C12A C13U	1.17
U7G G9C U10G U11A C12A C13A	1.13
U7G G9C U10G U11A C12A C13G	1.12
U7G G9A U10G	1.19
U7G G9C U10G U11C C12U C13G	1.26
U7G G9C U10G U11C C12U C13A	1.29
U7G G9C U10G U11C C12U C13U	1.19
